Test results published in the RNAGym collection of RNA variant scans (doi:10.7554/elife.80360).

B1: HDV Ribozyme (parent)
chain: GGCCGGCAUGGUCCCAGCCUCCUCGCUGGCGCCGGCUGGGCAACAUUCCGAGGGGACCGUCCCCUCGGUAAUGGCGAAUGGGACCCA

Variants of: B1
Assay: self-cleavage, relative activity (ratio to wild type); higher = more cleavage; co-transcriptional

Variant	self-cleavage
C44G G73A	0.522
G40A U60C	1.11
G55C C66A	0.87
C13A G80C	0.125
U12G A56U	1.22
G39U C58G	0.506
G6A C22U	0.4
C19G U79A	0
U23G C66U	0.65
U47A G52A	0.975
G68A U72G	0.312
G31U G73U	0.171
A78C A83C	0.151
U20C U47C	0.262
C44U C49U	0.96
A71G A77G	0.88
C32A C62A	0.151
U46C G52U	1.05
G6A U79G	0.227
U23C C58A	1.18
C14A A71G	0.499
C19U G55C	0.164
U69A G73C	0.264
G5A U69C	0.208

Variant	self-cleavage
G73C	0.505
U37G U60G	0.0831
G6A G74U	0.104
C48A G53A	1.05
C4A G54U	0.32
G38A G53U	0.0567
C24G C30A	0.0898
G17C C36A	0.0361
G6C G73A	0.0723
C30U G81U	0.149
C49G U79G	0.762
G5C G82U	0.0594
U9A C64G	0.759
U47G G54A	1.18
G2C G34U	0.0966
A43G G53U	0.577
C24G G74U	0.0554
U9A A45G	0.733
G40U C63A	0.793
C4A G17U	0.0292
U47A A56C	0.782
U9G C85U	1.14
C13A U47A	0.148
U65C C66A	1.18

Variant	self-cleavage
G59C A70C	1.07
G31U C41G	0.0437
G2C A16G	0.131
C15U U23A	0.831
G17A A56C	0.847
C36G U72A	0.138
U60G U69A	0.965
C44U U72G	0.665
A45G U79A	0.755
C3U C4U	0.655
C75G A78U	0.0462
C66U C75G	0.141
G10U A51U	0.767
G81A G82U	0.225
C57G G74U	0.388
A8U A77U	0.0898
C3G U47G	0.457
C18A G54U	0.135
G17U C57G	0.464
C21A C30G	0.0652
C63A G68U	0.764
G11C G52A	0.232
G54U C61A	1.04
C36U G55C	0.789

Variant	self-cleavage
G35A A70G	0.491
G2A G81U	0.0346
C24U G81C	0.111
A8G C21G	0.0536
G53U G68C	0.277
G28U G53U	0.124
C7A C14G	0
A42U C49A	0.53
C22A A56U	0.323
C49A C84G	0.743
C15U C62U	0.764
A43U G52A	0.561
U65A A83G	0.859
C7U C26U	0.867
G5C A70C	0.158
A45G A78C	0.237
C22A A43C	0.111
A56C U69C	1.09
U20C C85A	0.119
C41A C49A	0.519
C24G A83C	0.0923
C63A U65C	0.525
G1A U65C	0.0875
A42U G59U	0.595

Variant	self-cleavage
C19G G54U	0.0594
G10C G59A	0.895
C30G A83C	0.0489
G59U C62G	0.748
C66A C75G	0.181
G5C G76C	0.199
G2U A8G	0.0272
A8C C24A	0.434
G28C C63U	0.0369
C63A G68A	0.801
C61U A71G	0.997
A8U G68C	0.752
G74C G76A	0.208
A16G U47G	1.14
A43U C58G	0.7
C63A C85U	0.911
U65C G67U	0.627
C15A G53C	0.674
G10U U65G	0.619
G2C U65C	0.14
C64A G67A	0.369
U23G C62A	0.712
G11U C49U	0.386
A42C C49A	0.262

Variant	self-cleavage
G38C A87G	0.155
C58A A77C	0.482
C49U G52A	0.96
C41G A56G	0.851
C24A A70C	0.852
C24A C61U	0.757
U47A A56U	0.856
U12G C30U	0.375
G52C G54A	0.541
C15U G40A	0.972
G50U C66U	1.09
G5A C44G	0.0369
G35U U60C	0.317
A16U C26G	0.831
C19G C61U	0.0707
C15A U72G	0.277
U79C G81A	0.208
G31C C84A	0.443
C26G G38C	0.151
U37A C75U	0.128
C26A C33U	0.796
G1C C86A	0.0978
G35A G39U	0.128
G28U G82U	0.0468

Variant	self-cleavage
G28A G50C	0.0978
U20A G67U	0.115
A45C A56U	0.629
G5C C66A	0.172
C64G G82A	0.535
A45U U65C	1.04
G25A A56U	0.111
C30G C49U	0.0511
A45U G59U	0.903
U46C C57U	0.705
A16U C57G	1.22
C13A U69C	0.111
G11U C63U	0.364
G59C G80U	0.244
G17A U47A	0.554
C48A G76C	1.05
G6C C26A	0.369
A8C G59C	0.923
C3G C64A	0.528
U9A U47C	0.997
C21A A87C	0.0742
U23C A71U	0.808
C18G G34C	0.104
